The target in data set [1] is T1, interferon-gamma (IFNγ) (human) (UniProt P01579).
T1 sequence: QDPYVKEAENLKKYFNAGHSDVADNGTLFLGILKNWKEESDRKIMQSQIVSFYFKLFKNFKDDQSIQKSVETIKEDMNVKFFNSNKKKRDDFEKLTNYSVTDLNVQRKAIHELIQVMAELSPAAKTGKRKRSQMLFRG
Kind of data set: SPR. As to conditions: SPR (BIAcore T200, biotinylated aptamer on SA chip), 1x PBS (1 mM KH2PO4, 3 mM Na2HPO4) with 205 mM NaCl final, 0.05% NP-40, pH 7.4, 25 °C, IFNγ 1.25-50 nM.

In data set [2] the target is T1, interferon-gamma (IFNγ) (human). As to conditions: N = unnatural base Ds at positions 18, 29, 40; SPR (BIAcore T200, biotinylated aptamer on SA chip), 1x PBS (1 mM KH2PO4, 3 mM Na2HPO4) with 205 mM NaCl final, 0.05% NP-40, pH 7.4, 25 °C; IFNγ 1.25-50 nM; cited from earlier work.

Where two headings read alike, the source gives them in different places.

Sequence “CCCGCCCGGGTCCGCGAAGCGGTAGGTNTGGGCTAGGCNGCTGGCGGGCGCGAAGCG [aptamer 57mhGC]” showed a Kd in data set [1] (N = unnatural base Ds at positions 28, 39) of 0.033 nM.
Consider “TCCACTCGGGTCATTTANTAATGTAGGTNTGGGCTAGGCNGCTAGTGGA [aptamer 49]”, for which the dissociation constant Kd is 0.046 nM in data set [2] and 0.046 nM in data set [1] (N = unnatural base Ds at positions 18, 29, 40).

Values taken from publication PMC4686876.
